The data set deals with T7 RNA polymerase (UniProt P00573 1-883). Put plainly: confocal localization to immobilized DNA; 500 nM Cy5-T7 RNAP, 0.5 h, 37 C; target in proteinosomes; reaction buffer (composition not in the material; NEB buffer 3.1 mentioned), 37 C; DNA localization in 10 mM Tris pH 8.0, 12 mM Mg, 0.1% Tween 20. The note with it: protein: commercial; tags: Cy5 label; label: Cy3 5' on NTMG; biotin on TMG; NTMG 5' overhang 27 nt (incomplete T7 promoter).

Consider 1 molecule from article PMC9320857, “Protocellular CRISPR/Cas‐Based Diffusive Communication Using Transcriptional RNA Signaling”.

Sequence of T7 RNA polymerase (P00573 whole entry): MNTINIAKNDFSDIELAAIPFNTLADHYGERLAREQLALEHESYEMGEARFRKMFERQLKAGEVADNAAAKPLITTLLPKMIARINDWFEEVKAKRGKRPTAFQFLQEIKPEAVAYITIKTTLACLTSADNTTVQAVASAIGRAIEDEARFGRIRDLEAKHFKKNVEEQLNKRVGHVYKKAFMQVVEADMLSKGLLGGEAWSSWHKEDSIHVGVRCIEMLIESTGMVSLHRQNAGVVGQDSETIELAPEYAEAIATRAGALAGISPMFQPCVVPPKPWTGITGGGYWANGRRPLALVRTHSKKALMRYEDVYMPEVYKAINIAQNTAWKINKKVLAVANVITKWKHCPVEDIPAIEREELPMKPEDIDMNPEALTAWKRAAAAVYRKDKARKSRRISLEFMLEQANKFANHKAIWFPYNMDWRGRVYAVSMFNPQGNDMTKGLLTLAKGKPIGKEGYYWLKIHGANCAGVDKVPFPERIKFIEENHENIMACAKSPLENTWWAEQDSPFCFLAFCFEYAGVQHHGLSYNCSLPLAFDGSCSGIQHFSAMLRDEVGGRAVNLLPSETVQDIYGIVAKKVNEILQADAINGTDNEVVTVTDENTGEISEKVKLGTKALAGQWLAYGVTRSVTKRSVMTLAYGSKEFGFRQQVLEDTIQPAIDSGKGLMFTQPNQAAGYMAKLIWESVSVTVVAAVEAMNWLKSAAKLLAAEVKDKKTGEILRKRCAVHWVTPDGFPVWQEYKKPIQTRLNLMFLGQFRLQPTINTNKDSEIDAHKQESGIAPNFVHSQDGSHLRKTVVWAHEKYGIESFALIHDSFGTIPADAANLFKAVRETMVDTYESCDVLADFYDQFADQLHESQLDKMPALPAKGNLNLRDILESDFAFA

B1: MG genelet TMG/NTMG (dsDNA)
DNA 1: CATTAGTGTCGTTCGTTCACAGTAATACGACTCACTATAGGGATCCCGACTGGCGAGAGCCAGGTAACGAATGGATC
DNA 2: GATCCATTCGTTACCTGGCTCTCGCCAGTCGGGATCCCTATAGTGAGTCG
For B1, the binding result is on record as “binds”.
